Assay results published in patent US20170173114A1, “METHODS AND COMPOSITIONS FOR INDUCTION OF UCP1 EXPRESSION” (Joslin Diabetes Center, Inc., priority 2014, published 2017).
Entries after “also recorded” stand apart in the source; their conditions may differ.

Experiments:
WT-1 brown preadipocytes = test: 2-deoxy-[3H]glucose uptake in WT-1 brown preadipocytes; assay type: cell-based, murine; details: FGF6 overexpressing vs control and EGF
Method: (§1) The following glucose uptake assay was used to determine whether FGF6 could impact cellular glucose uptake. Specifically, glucose uptake was monitored in WT-1 brown preadipocytes and 3T3-F442A white preadipocytes in the presence or absence of FGF6. After serum starvation in DMEM/H medium containing 1% of BSA for 2-3 h, cells were washed with HEPES buffer and then incubated with or without 100 nM insulin for 30 min in DMEM/H medium containing 1% of BSA. Glucose transport was determined by the addition of 2-deoxy-[3H]glucose (0.1 mM, 0.5 μCi/mL; PerkinElmer Life and Analytical Science, Waltham, Mass.). After 5 minutes of incubation, the reaction was stopped by ice-cold PBS and cells were washed twice with ice-cold PBS. Cells were then lysed in 0.1% SDS, and glucose uptake was assessed in 4 mL of scintillant using Beckman LS6500 scintillation counter (Beckman Coulter, Indianapolis Ind.). Nonspecific 2-deoxy-[3H]glucose uptake was measured in the presence of cytochalasin B (20 μM) and was subtracted from the total uptake to get specific glucose uptake. Results were expressed as the mean±s.e.m. of the indicated number of experiments. The protein content was determined by the Bradford method.
The role of PGs in regulating mitochondrial function and cellular glucose uptake was also assessed. […]

[1] = test system: 3T3-F442A white preadipocytes; test: 2-deoxy-[3H]glucose uptake in 3T3-F442A white preadipocytes; assay type: cell-based; details: FGF6 overexpressing vs control and EGF
Method: as §1

UCP1 [2] = test: UCP1 mRNA expression (Q-RT-PCR) in WT-1 brown preadipocytes; assay type: cell-based, murine
Method: Total RNA was isolated with QIAzol lysis reagent (Qiagen, Valencia, Calif.) and purified by RNeasy Mini columns (Qiagen) following the manufacture's instructions. cDNA was prepared from total RNA using the Advantage RT-PCR kit (BD Biosciences, Palo Alto, Calif.) according to manufacturer's instructions. Diluted cDNA was used in a PCR reaction with SYBR Green Master Mix (Applied Biosystems, Foster City, Calif.) and primers specifically designed for detection of the gene of interest. PCR reactions were run in duplicate for each sample and quantitated in the ABI Sequence Detection System (Applied Biosystems). Data were expressed as arbitrary units after normalization to levels of expression of internal controls for each sample. Sequences of primers for specific genes are each obtained from the published literature or designed using publically available gene sequence databases. Unless otherwise indicated, gene expression data described in the examples below was obtained using QPCR.
The effect of FGF6 on differentiation of WT-1 murine brown preadipocytes was also examined. WT-1 cells can be induced to undergo brown adipocyte differentiation, characterized by lipid accumulation and expression of adipogenic and brown fat markers, as described above (Klein et al. (1999) J Biol Chem 274:34795; Tseng et al. (2005) Nat Cell Biol 7:601). WT-1 cells were treated with FGF6 in growth media (DMEM+10% FBS), a vehicle control (“control” or “C” referred to in FIGS. 3A-D), or induction media (“induction” or “I” referred to in FIGS. 3A-D) as described above for seven days. Following the treatment, cells were examined for the color of the culture media in combination with oil Red O staining, expression of adipogenic markers, expression of brown fat markers, immunofluorescent staining of cells with UCP1 and DPAI, and Western blot analysis to determine the presence of UCP1 and β-tubulin. The results are described in FIGS. 3A to 3D.
UCP1 mRNA expression in brown adipocyte cells was determined at FGF6 concentrations ranging from 0 to 300 ng/ml in the absence of induction cocktail.
In order to determine the length of time necessary to induce UCP1 expression upon exposure to of cells to FGF6, an experiment was performed whereby FGF6 was administered to brown preadipocytes at a concentration of 200 ng/ml and UCP1 expression was determined. FGF21 and a control were also used in the time course experiment. FGF21, a member of the endocrine FGF ligands that has been implicated in the browning of white fat (Fisher F. M. et al., Genes Dev. 26:271-281, 2012). […] FGF6 could acutely induce a significant increase of UCP1 expression as early as 4 hours after a 200 ng/ml dose, as described in FIG. 4B. At 24 hours, the fold-induction of UCP1 mRNA by FGF6 reached 700-fold higher than the untreated cells, as described in FIG. 4B.
To assess FGF6's role in the regulation of mitochondrial activity, FGF6 was stably expressed in WT-1 brown preadipocytes and 3T3-F442A white preadipocytes. Stable cells were generated by viral infection followed by drug selection.
FGF2, FGF6 and FGF9 were used at a dosage of 50 ng/mL, 100 ng/mL, 200 ng/mL or 300 ng/mL. FGF21 was used at the dosage of 50 ng/ml and 500 ng/mL. The concentration of BMP7 was 3.3 nM. RNA was isolated and UCP1 and PPARγ expression levels were evaluated by quantitative reverse transcription polymerase chain reaction (Q-RT-PCR) analysis after 24 hours (i.e., 1 day) (FIG. 14A), 2 days (FIG. 14B), 5 days (FIG. 14C) and 7 days (FIG. 14D) of treatment. All experiments were performed triplicate and the data are presented as mean+/−SEM.
FGF2, FGF6 and FGF9 were used at a dosage of 200 ng/mL. FGF21 was used at a dosage of 500 ng/mL. The concentration of BMP7 was 3.3 nM. mRNA was isolated and UCP1 and PPARγ expression levels were evaluated by quantitative reverse transcription polymerase chain reaction (Q-RT-PCR) analysis after 24 hours (i.e., 1 day), 2 days, 5 days and 7 days of treatment (FIG. 15). […]

UCP1 [3] = test: UCP1 mRNA expression in SVF cells from interscapular brown adipose tissue (BAT-SVF); assay type: cell-based, C57BL/6 mice; details: growth media, 3 days; vs control
Method: (§2) Eight 6-week old C57BL/6 male mice were sacrificed. Interscapular BAT and axillary subcutaneous WAT were removed, minced and digested with 1 mg/ml collagenase for 45 minutes at 37° C. in DMEM/F12 media, containing 1% BSA and antibiotics. Digested tissues were filtered through sterile 150 μm nylon mesh and centrifuged at 250×g for 5 minutes. The floating fractions consisting of adipocytes were discarded and the pellets representing the SVF were then resuspended in erythrocyte lysis buffer (154 mM NH4Cl, 10 mM KHCO3, 0.1 mM EDTA) for 10 minutes to remove red blood cells. The cells were further centrifuged at 500×g for 5 minutes, plated at 8×10^5 cells/well of a 24-well plate and grown at 37° C. in DMEM/F12 supplemented with 10% FBS at 37° C.
(§3) To determine if FGF6 treatment of primary adipose progenitors could also increase UCP1 expression as observed in Example 1, stromo-vascular fraction (SVF) cells, which comprise adipocyte progenitors, were isolated from interscapular brown adipose tissue (BAT-SVF) and subcutaneous white adipose tissue (SQ-SVF). SVF cells were subsequently treated with FGF6 or FGF21 in growth media (DMEM+10% FBS) for 3 days, followed by determination of UCP1 expression. As described in FIGS. 9A and 9B, FGF21 treatment had little effect on UCP1 mRNA expression in either type of SVF cells, as compared to the control. […]

UCP1 [4] = test: UCP1 mRNA expression in SVF cells from subcutaneous white adipose tissue (SQ-SVF); assay type: cell-based, C57BL/6 mice; details: growth media, 3 days; vs control
Method: as §2, §3

UCP1 [5] = test: UCP1 mRNA expression in C2C12 myogenic progenitors; assay type: cell-based; details: three days
[6] = FGF21 50 and 500 ng/mL, BMP7 3.3 nM, with insulin and T3

B1: EGF: control treatment in glucose uptake assay (protein, UniProt P01133 23-1207, looked up)
Pro-epidermal growth factor: PQHWSCPEGTLAGNGNSTCVGPAPFLIFSHGNSIFRIDTEGTNYEQLVVDAGVSVIMDFHYNEKRIYWVDLERQLLQRVFLNGSRQERVCNIEKNVSGMAINWINEEVIWSNQQEGIITVTDMKGNNSHILLSALKYPANVAVDPVERFIFWSSEVAGSLYRADLDGVGVKALLETSEKITAVSLDVLDKRLFWIQYNREGSNSLICSCDYDGGSVHISKHPTQHNLFAMSLFGDRIFYSTWKMKTIWIANKHTGKDMVRINLHSSFVPLGELKVVHPLAQPKAEDDTWEPEQKLCKLRKGNCSSTVCGQDLQSHLCMCAEGYALSRDRKYCEDVNECAFWNHGCTLGCKNTPGSYYCTCPVGFVLLPDGKRCHQLVSCPRNVSECSHDCVLTSEGPLCFCPEGSVLERDGKTCSGCSSPDNGGCSQLCVPLSPVSWECDCFPGYDLQLDEKSCAASGPQPFLLFANSQDIRHMHFDGTDYGTLLSQQMGMVYALDHDPVENKIYFAHTALKWIERANMDGSQRERLIEEGVDVPEGLAVDWIGRRFYWTDRGKSLIGRSDLNGKRSKIITKENISQPRGIAVHPMAKRLFWTDTGINPRIESSSLQGLGRLVIASSDLIWPSGITIDFLTDKLYWCDAKQSVIEMANLDGSKRRRLTQNDVGHPFAVAVFEDYVWFSDWAMPSVMRVNKRTGKDRVRLQGSMLKPSSLVVVHPLAKPGADPCLYQNGGCEHICKKRLGTAWCSCREGFMKASDGKTCLALDGHQLLAGGEVDLKNQVTPLDILSKTRVSEDNITESQHMLVAEIMVSDQDDCAPVGCSMYARCISEGEDATCQCLKGFAGDGKLCSDIDECEMGVPVCPPASSKCINTEGGYVCRCSEGYQGDGIHCLDIDECQLGEHSCGENASCTNTEGGYTCMCAGRLSEPGLICPDSTPPPHLREDDHHYSVRNSDSECPLSHDGYCLHDGVCMYIEALDKYACNCVVGYIGERCQYRDLKWWELRHAGHGQQQKVIVVAVCVVVLVMLLLLSLWGAHYYRTQKLLSKNPKNPYEESSRDVRSRRPADTEDGMSSCPQPWFVVIKEHQDLKNGGQPVAGEDGQAADGSMQPTSWRQEPQLCGMGTEQGCWIPVSSDKGSCPQVMERSFHMPSYGTQTLEGGVEKPHSLLSANPLWQQRALDPPHQMELTQ
modifications: Pro-epidermal growth factor
B1 was tested, and the “glucose uptake level in WT-1 (brown) preadipocytes” value (WT-1 brown preadipocytes) was “no substantial effect” and the “glucose uptake level in F442A (white) preadipocytes” value [1] was “no substantial effect”.

B2: FGF21: fibroblast growth factor 21, member of the endocrine FGF ligands (protein, listed as Homo sapiens)
chain: MDSDETGFEHSGLWVSVLAGLLLGACQAHPIPDSSPLLQFGGQVRQRYLYTDDAQQTEAHLEIREDGTVGGAADQSPESLLQLKALKPGVIQILGVKTSRFLCQRPDGALYGSLHFDPEACSFRELLLEDGYNVYQSEAHGLPLHLPGNKSPHRDPAPRGPARFLPLPGLPPALPEPPGILAPQPPDVGSSDPLSMVGPSQGRSPSYAS
In the case of B2, the “UCP1 expression level, time course” value (UCP1 [2]; FGF2, FGF6, FGF9 200 ng/mL, FGF21 500 ng/mL, with insulin and T3, 1, 2, 5, 7 days) is reported as “did not express detectable amounts of UCP1”, the “UCP1 expression level at day 7” value (UCP1 [2]; [6]) is reported as “only minimal amounts” and the “UCP1 expression level at days 1, 2 and 5” value (UCP1 [2]; [6]) is reported as “did not express detectable amounts of UCP1”. For the same molecule, the “effect on UCP1 expression in brown preadipocytes cultured in growth media” value (UCP1 [2]; data not shown) was “marginal effect”, the “effect on UCP1 mRNA expression in BAT-SVF” value (UCP1 [3]) was “little effect” and the “effect on UCP1 mRNA expression in SQ-SVF” value (UCP1 [4]) was “little effect”. The “UCP1 mRNA expression in C2C12 myogenic progenitors” value (UCP1 [5]) was “neither FGF6 nor FGF21 induced UCP1 mRNA expression; also recorded: no induction of UCP1”.
